Results: US20250320284A1 (AC IMMUNE, published 2025)
Numbering of substitutions follows the chain as printed.

T1: mouse ASC (mouse, UniProt Q9EPB4 1-193)
T1 sequence: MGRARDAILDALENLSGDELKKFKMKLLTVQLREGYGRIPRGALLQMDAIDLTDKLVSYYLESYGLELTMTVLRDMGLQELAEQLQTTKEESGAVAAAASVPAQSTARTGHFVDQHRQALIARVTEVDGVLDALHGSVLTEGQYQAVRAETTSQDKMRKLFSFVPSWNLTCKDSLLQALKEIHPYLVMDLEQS

T2: CARD domain of human ASC (human, UniProt Q9ULZ3 107-195)
T2 construct: biotinylated in BLI; also called hCARD; human CARD
T2 sequence: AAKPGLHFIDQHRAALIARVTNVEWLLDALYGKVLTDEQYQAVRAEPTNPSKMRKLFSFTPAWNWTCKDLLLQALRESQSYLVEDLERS

B1: ACI-8016-26A1G2-AB1 (antibody, V domains shown)
VH: QVQLQQSGAELARPGASVKLSCKASGYNFTTYGINWVKQRTGQGLEWIGKIYPRSGNTHNNENFKGKATLTADTSSSTAYMDLRSLTSEDSAVYFCARSPYAFYSSSYWYFDVWGTGTTVTVSS
VL: DIKMTQSPSSMYASLGERVTITCKASQDIKSYLSWYQQKPWKSPKTLIYYATSLADGVPSRFSGSGSGQDYSLTISSLESDDTATYYCLQHGESPFTFGSGTKLEIK
notes: also called 936.26A1G2; ACI-8016-26A1G2-AB1_hmG2c
B2: ACI-8016-2629E8D1-AB1 (antibody, V domains shown)
VH: QVQLQQSDAELVKPGGSVKISCKVSGYTFTDHTIHWMKQRPEQGLEWIGNIYPGDGSTMYNEKFKGKATLTADKSSSTAYMHLNSLTSEDSAVYFCARPYYFGSASYYFGYWGQGTTLTVSS
VL: DIQMNQSPSSLSASLGDTITITCHASQNINVWLNWYQQKPGNIPKLLIYKASNLHTGVPSRFSGSGSGIGFTLTISSLQPEDIATYYCQQGQSYPLTFGGGTKLEIK
notes: also called ACI-8016-2629E8D1-AB1_rmG2a_01
B3: ACI-8016-32B6C7-AB1 (antibody, V domains shown)
VH: QVQLQQSDAELVKPGASVKISCKISGYTFTDQTIHWMNQRPEQGLEWIGYIYPGDGSAMYNEKFRGKATLTADKSSSTAYMQLNSLTSEDSAVYFCARPLYSYASYYWFAYWGQGTLVTVSA
VL: B2 VL with N34S, Q38R, A51S, I69T
notes: also called 936.32B6C7
B4: ACI-8016-2617C3A8-AB1 (antibody, V domains shown)
VH: QVQLQQSGVELARPGASVKLSCKASGSTFTSYSITWVKQRTGQGLEWIGVIYPRSDNTYYDEKFKGKATLTADKSSSTAYIELRSLTSEDSAVYFCATRDYWGQGTTLTVSS
VL: QIVLTQSPAIMSASPGEKVTITCSASSSVSYMYWFQQKPGTSPKFWIYSTSNLASGVPARFSGSGSGTSYSLTISRMEAEDAATYYCQQRSNYPFTFGSGTKLEIK
B5: ACI-8016-18F4C12-AB1 (antibody, V domains shown)
VH: EVQLQQSGAELVRPGSSVKMTCKTSGYSFSSYGMSWVKQRPGQGLEWIGYIYVGNGYTEYNEKFKGKATLTSDTSSSTVYMDFRSLTSEDSAIYFCARLNRGRALDFWGQGTTLTVSS
VL: DIVLTQSPASLAVSLGQRATISCRASQSVSTSGHSYMHWYQQKPRQSPKLLIHFASNLESGVPARFTGSGSGTDFTLNIHPVEEEDAATYYCQHSWDLPYTFGGGTKLEIK
notes: also called 936.18F4C12

How the values were obtained:
mouse ASC [1] = target: T1, mouse ASC; test: cell-based or functional assay
[2] = target: T3, human ASC (apoptosis associated speck-like protein containing a caspase-recruitment domain) (human, UniProt Q9ULZ3 1-195); test: cell-based or functional assay
mouse ASC [3] = target: T1, mouse ASC; test: SPR affinity mode, mAb captured;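 note: Single-cycle SPR kinetics with mAbs captured on goat anti-mouse antibody, double-referenced against blank flow cell and buffer cycle, fitted by a 1:1 kinetic model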
[4] = target: T3, human ASC (apoptosis associated …); test: SPR affinity mode, mAb captured;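 note: Single-cycle SPR kinetics with mAbs captured on goat anti-mouse antibody, double-referenced against blank flow cell and buffer cycle, fitted by a 1:1 kinetic model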
PYD domain of human ASC [5] = target: T4, PYD domain of human ASC (human, UniProt Q9ULZ3 1-91, limits assumed); test: BLI binning on PYD, competitor 2617C3A8-AB1
T4 construct: biotinylated in BLI; His/MBP-tagged in the alanine ELISA; also called hPYD; human PYD

[6] = target: T3, human ASC (apoptosis associated …); test: ELISA, coated hASC;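 note: antibody binding to plate-coated recombinant human ASC, read as phosphatase substrate absorbance, EC50 from four-parameter variable-slope fit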
PYD domain of human ASC [7] = target: T4, PYD domain of human ASC; test: BLI binning on PYD, competitor 26A1G2-AB1
CARD domain of human ASC [8] = target: T2, CARD domain of human ASC; test: sandwich ELISA on MBP-tagged protein captured by anti-MBP antibody, signal as % of hPYD-WT
PYD domain of human ASC [9] = target: T4, PYD domain of human ASC; test: BLI binning on PYD, competitor 22D3A6-AB1
PYD domain of human ASC [10] = target: T4, PYD domain of human ASC; test: ELISA, coated hPYD;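 note: monoclonal antibody binding to plate-coated human ASC PYD measured by ELISA, with a phosphatase substrate absorbance read-out and EC50 from a variable slope curve fit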
PYD domain of human ASC [11] = target: T4, PYD domain of human ASC; test: BLI binning on PYD, competitor 2626B9D3-AB1
mouse ASC [12] = target: T1, mouse ASC; test: ELISA, coated mASC
PYD domain of human ASC [13] = target: T4, PYD domain of human ASC; test: BLI binning on PYD, competitor 401H9B7-AB1
PYD domain of human ASC [14] = target: T4, PYD domain of human ASC; test: BLI binning on PYD, competitor 416E6G4-AB1
PYD domain of human ASC [15] = target: T4, PYD domain of human ASC; test: BLI binning on PYD, competitor 2610H7D3-AB1
mouse ASC [16] = target: T1, mouse ASC; test: cell-based or functional assay; remark: listed apart in the source
PYD domain of human ASC [17] = target: T4, PYD domain of human ASC; test: BLI binning on PYD, competitor 31F10C5-AB1
PYD domain of human ASC [18] = target: T4, PYD domain of human ASC; test: BLI binning on PYD, competitor 23E5F7-AB2
CARD domain of human ASC [19] = target: T2, CARD domain of human ASC; test: BLI binning on CARD, competitor 2622E12F11-Ab1
CARD domain of human ASC [20] = target: T2, CARD domain of human ASC; test: BLI binning on CARD, competitor 32B6C7-Ab1
mouse ASC [21] = target: T1, mouse ASC; test: SPR affinity mode, steady-state fit, apparent KD; SPR affinity mode, mAb captured, mASC in solution; steady-state fit, apparent KD
CARD domain of human ASC [22] = target: T2, CARD domain of human ASC; test: BLI binning on CARD, competitor 2504F3D9-Ab1
CARD domain of human ASC [23] = target: T2, CARD domain of human ASC; test: ELISA, coated hCARD
mouse ASC [24] = target: T1, mouse ASC; test: ELISA, coated mASC; ELISA on mASC protein
[25] = target: T3, human ASC (apoptosis associated …); test: cell-based or functional assay; remark: listed apart in the source
CARD domain of human ASC [26] = target: T2, CARD domain of human ASC; test: BLI binning on CARD, competitor 2629E8D1-Ab1
CARD domain of human ASC [27] = target: T2, CARD domain of human ASC; test: BLI binning on CARD, competitor 18F4C12-Ab1
CARD domain of human ASC [28] = target: T2, CARD domain of human ASC; test: BLI binning on CARD, competitor 2609F4A9-Ab1
mouse ASC [29] = target: T1, mouse ASC; test: SPR affinity mode, steady-state fit, apparent KD

T4 sequence (Q9ULZ3 1-91 limits assumed): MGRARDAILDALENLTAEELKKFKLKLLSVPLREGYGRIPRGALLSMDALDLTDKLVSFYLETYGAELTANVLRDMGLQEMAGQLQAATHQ

Binder | Mouse ASC polymerization assay, IC50 (mouse ASC [1]) | Human ASC polymerization assay, IC50 [2] | Kd (mouse ASC [3]) | koff (mouse ASC [3]) | kon (mouse ASC [3]) | Kd [4] | koff [4] | kon [4] | EC50 [6] | EC50 (mouse ASC [12]) | % IL-1β inhibition, mouse primary microglia, 420 nM mAb (mouse ASC [16]) | normalized binding response (CARD domain of human ASC [19]) | normalized binding response (CARD domain of human ASC [20]) | binding result (PYD domain of human ASC [10]) | normalized binding response (CARD domain of human ASC [22]) | EC50 (CARD domain of human ASC [23]) | IL-1β release, human monocytic cell line, IC50 [25] | normalized binding response (CARD domain of human ASC [26]) | normalized binding response (CARD domain of human ASC [27]) | normalized binding response (CARD domain of human ASC [28]) | other results
B1 | 24.8 nM | 4.9 nM | 3.81 nM | 0.000101 s⁻¹ | 27600 M⁻¹ s⁻¹ | 1.87 nM | 8.05e-05 s⁻¹ | 42000 M⁻¹ s⁻¹ | 0.13 nM | 0.15 nM | 52.1% | – | – | – | – | – | – | – | – | – | normalized binding response (PYD domain of human ASC [5]): 23%; normalized binding response (PYD domain of human ASC [7]): 3%; binding result (CARD domain of human ASC [8]): no binding; normalized binding response (PYD domain of human ASC [9]): 23%; EC50 (PYD domain of human ASC [10]): 0.12 nM; normalized binding response (PYD domain of human ASC [11]): 33%; normalized binding response (PYD domain of human ASC [13]): 63%; normalized binding response (PYD domain of human ASC [14]): 14%; normalized binding response (PYD domain of human ASC [15]): 22%; normalized binding response (PYD domain of human ASC [17]): 19%; normalized binding response (PYD domain of human ASC [18]): 18%
B2 | – | 14.1 nM | – | – | – | 1.38 nM | 0.000182 s⁻¹ | 140000 M⁻¹ s⁻¹ | 0.11 nM | – | 88.8% | 102% | 3% | no binding | -2% | 0.12 nM | 14.9 nM | 0% | 95% | -2% | Kd (mouse ASC [21]): 134 nM; EC50 (mouse ASC [24]): 0.22 nM
B3 | – | 12.1 nM | – | – | – | 1.06 nM | 0.000201 s⁻¹ | 192000 M⁻¹ s⁻¹ | 0.14 nM | 0.14 nM | 66.7% | 106% | 0% | no binding | -3% | 0.11 nM | 13.9 nM | -2% | 97% | -3% | Kd (mouse ASC [29]): 36.9 nM
B4 | 35.7 nM | 6 nM | 0.15 nM | 0.000162 s⁻¹ | 1.09e+06 M⁻¹ s⁻¹ | 0.15 nM | 0.000118 s⁻¹ | 810000 M⁻¹ s⁻¹ | 0.16 nM | 0.23 nM | 94.3% | – | – | – | – | – | 20.3 nM | – | – | – | normalized binding response (PYD domain of human ASC [5]): 2%; normalized binding response (PYD domain of human ASC [7]): 2%; binding result (CARD domain of human ASC [8]): no binding; normalized binding response (PYD domain of human ASC [9]): 1%; EC50 (PYD domain of human ASC [10]): 0.16 nM; normalized binding response (PYD domain of human ASC [11]): 88%; normalized binding response (PYD domain of human ASC [13]): 75%; normalized binding response (PYD domain of human ASC [14]): 4%; normalized binding response (PYD domain of human ASC [15]): 0%; normalized binding response (PYD domain of human ASC [17]): 2%; normalized binding response (PYD domain of human ASC [18]): 1%
B5 | – | 4.7 nM | – | – | – | 0.7 nM | 0.000442 s⁻¹ | 621000 M⁻¹ s⁻¹ | 0.19 nM | 0.2 nM | 82.8% | -3% | 78% | no binding | 33% | 0.18 nM | 15.9 nM | 69% | 0% | 68% | Kd (mouse ASC [29]): 54.5 nM
